Variants at the floor of the assay were thinned out.
B1: TPR 5TU (parent)
chain: GGAUCUUCUCGAUCUAACAAAAAAGACAAAUCUGCCACAAAGCUUGAGAGCAUCUUCGGAUGCAGAGGCGGCAGCCUUCGGUGGCGCGAUAGCGCCAACGUUCUCAACUAUGACACGCAAAACGCGUGCUCCGUUGAAUGGAGUUUAUCAUG

Variants of: B1
Test: polymerase ribozyme fitness, log enrichment relative to wild type (log ratio); higher = more active; in vitro selection for triplet polymerase activity
Outline: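 Only genotypes with ≥10 input reads and ≥1 read per output were kept after Illumina sequencing of input and output libraries. These libraries were PCR-built, transcribed mutants of each subunit of a heterodimeric triplet polymerase ribozyme, each put through one triplicate in vitro selection round with frozen incubation at −7 °C, gel excision of extended constructs, streptavidin-bead capture and RT-PCR. Fitness is a logarithmic ratio of genotype enrichment to wild-type enrichment, from inverse-variance-weighted replicate averages, with the logarithm in base 2.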

Variant	polymerase ribozyme fitness (log ratio)
A16G A40U G59C U104A	-1.85
U15G A24U U145G A147C	-3.02
U15G A28U A49C A66C C79A A97U G124A	≤ -4.2
A16U G25U C27U A28U C43U G94C C99G C125A U148C U151G	≤ -4.2
A16G A17U A26U A41U C96A U102A G143C	≤ -4.2
U15A A20G A26U A39G A47C C79U C103G G140A	≤ -4.2
U15A U55A U56A C69U C79U G86A A91U A106C A121G C125U A142C	≤ -4.2
A16U G84U C129A	≤ -4.2
C14U U15C A16U A19G A30U A39C G48U G50A G70U A113U G141U	≤ -4.2
U15G G81A C118A A119C G133A A138U	≤ -4.2
U15G A29U C76A G83A	≤ -4.2
A16G A37C U55G U56A G59A G83A C87U	-3.9
A16C G50A A64G C75A G83C C131A	≤ -4.2
U15G A41C C93U	-1.93
U15A A24G A98G C99A	≤ -4.2
A16C G58U U101G C105A U144G	≤ -4.2
U15A A23U A39C A47U C96G G141U	≤ -4.2
A16C A52U	-2.03
U15A A26G U77G C95A	≤ -4.2
U15A U111C G112U	-3.91
U15C C99G	-0.377
A16G G46A A73G G88U G94A C114G	≤ -4.2
A17C U33A A73U C96U G128A G140A U146G	-3.99
A16U A26C A29U G68C G83A	≤ -4.2

Variant	polymerase ribozyme fitness (log ratio)
A16U G83U C85U C103G U135G	≤ -4.2
U15A A73U C76G C118A A138C G141C	≤ -4.2
U15A G84U C95U G143C	-4.14
A16U A39U A49U G50C G84U A119G A121G G140U	≤ -4.2
A16C A21C G50A C85U C125G	-2.99
A16C A20U A40U C54U G58U A60C	-4.15
A16U C54A A60C A73C G86A A89C A119G G126U	≤ -4.2
A16C A21C U61A	-1.52
A16U A41U	-2.64
U15C A91C G94U C96G	≤ -4.2
U15A G84A C93A U134G	-4.09
A16C A21U C76U C105U	-1.77
C14U G81U G84U	-2.93
A16U G92U C99G	-3.45
A16C A30U G58U A66U A73G	≤ -4.2
A16U A22U A52C C87A A107C C125A U134C	≤ -4.2
C14U U15A A20G C38U C57U U90C U102G A119G A122C	≤ -4.2
A16U C36U C51A G92A	≤ -4.2
A16U A22U A23G A60U C95U C108U A119G C123U	≤ -4.2
A16C G86C	-3.43
A16G C95U C96A G100U U101A C108A U139C U144A	≤ -4.2
U15C G92A C99G U148A	≤ -4.2
A16G U33G C93A C95A C103U A121G	≤ -4.2
U15C G86A	0.14

Variant	polymerase ribozyme fitness (log ratio)
A17C U56A	0.36
A16U C32A C35G C96A G124C U144C	≤ -4.2
A16C A37C A39C C85U	≤ -4.2
A16C C32A A41U A60G G74U C93G A147U	≤ -4.2
U15G U148A	-2.78
U15C G50C U101G C105U	-1.68
A17C C85G C149G	≤ -4.2
A16U C57G U77A G88U	≤ -4.2
A16C A30U G68C C79G	≤ -4.2
A17C C85A C99A	-2.66
U15A G25U A60G G74A C75A A142U	≤ -4.2
A16G A49G A73C A91G U144C	≤ -4.2
U15A C38A A73U G83U G84C	≤ -4.2
A16C C38A	-1.34
A16C A47C U55A	-2.23
A16C A121G	-1.15
A16U C93A	-3.85
U15A A40G U55A A60U C114A	≤ -4.2
A16C C35G A66C G71A U82C C87A	≤ -4.2
A16G G25A U45C U53A A91C C103G C108U C125U	≤ -4.2
C14U G84U	-3.29
U15C C54U	0.268
A16U G48U G86C C87A A97U C123U U148G	≤ -4.2
A16U A20U C54U G58C G59A C93U C114U U148A	≤ -4.2

Variant	polymerase ribozyme fitness (log ratio)
A16G C35A C87G U109C G126C C149G	≤ -4.2
A17C U53A A73U C76A C85G C108A U146A	≤ -4.2
C14U G65C C87G C96U C132U U139G	≤ -4.2
A17C C51A C93U A115U	-2.93
A16G A39G G68A C95A C103G C108U U111G A115G C123U	≤ -4.2
A16U U31C C35U A37C C76G C105G G117A	≤ -4.2
A16U C75U G86A	-2.59
C14U G92A C116G	-3.86
U15G U139A	≤ -4.2
A16G A52C C87A U102A C118G C132U	≤ -4.2
U15G G70A C87U U90C C93U	≤ -4.2
U15A C87U	-0.632
U15C C54A C57G C87U A150G	-3.99
A16U C93U A106C	-3.19
A16U C18G A21U A98G C105U	≤ -4.2
U15C C36A U55A A106U C108U A115G G117U G140A	≤ -4.2
A16C A21C A49C C54U C96U	-4.18
A16U C93G C105G	≤ -4.2
C14U G83A C116A G141A	-3.95
A17G A20U A52C A89G C95A A106U U134A	≤ -4.2
C14U G84C A122G G136A	-3.51
U15A A49C U53A G86U	≤ -4.2
A16G G48A C57G G58A A60C G88A C114A G141A	≤ -4.2
U15G G92U	-0.561

Variant	polymerase ribozyme fitness (log ratio)
C14U U55G	-1.61
U15G G59C A73G C85A	-2.7
U15A A20U A23G A37G G68C C96U C129G U144A	≤ -4.2
A16G C93A	-2.12
A16C U31A	-0.733
A17C C27U C85U G86U C123U G141A	-3.85
A17C U53G G62U G117U	-2.27
A16U C36A G92U A150U	≤ -4.2
A16G A47G G50C G59A G83U C114A	≤ -4.2
A16G A89U A115G A119G U134G U144A	≤ -4.2
U15C U56A C69A G84A G136A	-0.468
A16G A26U C51U A52C C87U	≤ -4.2
U15C A40U G59C C85U	1.15
C14U U45G C87A C95U C103A	-4.17
A16C G50A C96A	-3.37
A17C U33G G71A C85U G88U U111C A142G U146C	≤ -4.2
A17G A21C G46C G58U U135G	-4.12
A16G C38A A147C	-2.97
C14U U33G G59C C87U G124U G141C G152U	-4.16
A16U C51A G74U C87A A107U	≤ -4.2
A16C C108U A147U	-3.42
C14U U45A G50C C57A A91U C103G C105A	≤ -4.2
A16C A120C G140A	-3.75
A16C U135A	-2.12

Variant	polymerase ribozyme fitness (log ratio)
U15G A21G U135C	-2.43
A16U A28C U55A C69A G71A G88C U102G C123U U130G	≤ -4.2
U15A G46U A47C C72U G88U G94A C95G A97G C108G A115G	≤ -4.2
A16C A19C G84C C96U G126C	-3.42
U15G C18A C54A G94A G117C C125A	-1.44
A16C A22C U82G C85U A98C G136U	≤ -4.2
A16U U56A A60U G141U	-2.12
A16U A17C A24G A49G C76A C87A C99G	≤ -4.2
A16U C38G U61A C75G G80A G100A G136U	≤ -4.2
U15A A30G U78G C87G	≤ -4.2
U15G U31A U55A C93G	-2.44
A16C G58C G83U A119C	-1.98
U15G A29U C75G C87G G88U A119G C149A	≤ -4.2
A16C A22U A26C A41U A52G C57U G58C G68U A91C C95G U139C G140A	≤ -4.2
A17C A39G U44G C63A A73G A113G A121U G141A	≤ -4.2
A16G U53A U56G A89C C96U U111C	≤ -4.2
C14U G86U	-3.21
A16G U44A A73G C87U C93U	≤ -4.2
U15A C18G U146G	-0.119
A16C C93A	-3.94
A17C C38A G94A	0.661
A16U C18G G94A	-2.97
A17G A20U G42C A49C A52U U148A	≤ -4.2
U15A U55A C99G	-1.2

Variant	polymerase ribozyme fitness (log ratio)
U15C A41C C57U C76U C93U	-0.0442
A16U A24C C27U C85U G126U	≤ -4.2
A16C A26G G86U	≤ -4.2
A17C U31G C76A C95G	≤ -4.2
A16C C75A C76A C125G	≤ -4.2
A16C A60U A66C C76U U78C C93A	≤ -4.2
U15G A122G	-1.2
A16G A37U G92U	-2.9
A16C C85A	-2.36
A16G C85U	-0.908
A16G C85G	-2.6
A16U A19U G80A U144G	-2.53
A17C A64C G83U	≤ -4.2
A16G A73G	-0.494
A17C A28U G88C U144C	-4.01
A17C C18A U33A G80C C87A C108A G152C	≤ -4.2
U15G C57U G58C C76A	-0.888
U15G G50U C93A G143A	-3.35
C14U U56G U78C G86U	-4.1
A16G U53A	-1.79
A16C A22U A97U C114A U135G	≤ -4.2
A16U U53A C57A C95A	-2.57
U15G A16U C85U C118U	-1.42
